The source of these data is the DeepSol protein solubility set.

The data set in a line: soluble on expression in E. coli; label from the status in PepcDB or PDB records.
Take “MANLQNMSSSPKHTNGSSERSENCGELCVVCGDKASGRHYGAVSCEGCKGFFKRSIRKRIGYVCRSQKDCPVTKFHRNRCQYCRLRKCLSMGMRSESVQAERRPVNNSSMLCNNDNNQQNTTPEHLSPNLLLSLVKLEHETKLGGLEALIKPGSPVMLQNTQDYMDVKRESIGEDEMTVIGLVPPSASPTSSGVGSSSSISDDSGPIYTSERARFEISVPLNTQNPRNHQYISEITTRLLFLTVHFVKDSRVSLRTSTMEGLLKSKWCDLYILALMQTADKIKLGQLLDNLTNQMAMGMECGQYSAEKFEKISEQMQRLLQLSQLFASRELTAVEYAYLKMISFTAQDLPSSMASPETRSVNQMASQELFEYVSSSKSTQNHMSNEHINVDDSTSEDNDTHVTSQQSSVNIAAERFSRILQLLPCLRWFDPATIVEIFFSGLIGPMSIETIIPFVLQMNLMSFFDQKMELGSGGASDTLSTSSLSEMMNNQ”: the “soluble on expression in E. coli” value is given as “not soluble”.

In the case of “MDADMDYERPNVETIKCVVVGDNAVGKTRLICARACNTTLTQYQLLATHVPTVWAIDQYRVCQEVLERSRDVVDEVSVSLRLWDTFGDHHKDRRFAYGRSDVVVLCFSIANPNSLNHVKSMWYPEIKHFCPRTPVILVGCQLDLRYADLEAVNRARRPLARPIKRGDILPPEKGREVAKELGLPYYETSVFDQFGIKDVFDNAIRAALISRRHLQFWKSHLKKVQKPLLQAPFLPPKAPPPVIKIPECPSMGTNEAACLLDNPLCADVLFILQDQEHIFAHRIYLATSSSKFYDLFLMECEESPNGSEGACEKEKQSRDFQGRILSVDPEEEREEGPPRIPQADQWKSSNKSLVEALGLEAEGAVPETQTLTGWSKGFIGMHREMQVNPISKRMGPMTVVRMDASVQPGPFRTLLQFLYTGQLDEKEKDLVGLAQIAEVLEMFDLRMMVENIMNKEAFMNQEITKAFHVRKANRIKECLSKGTFSDVTFKLDDGAISAHKPLLICSCEWMAAMFGGSFVESANSEVYLPNINKISMQAVLDYLYTKQLSPNLDLDPLELIALANRFCLPHLVALAEQHAVQELTKAATSGVGIDGEVLSYLELAQFHNAHQLAAWCLHHICTNYNSVCSKFRKEIKSKSADNQEYFERHRWPPVWYLKEEDHYQRVKREREKEDIALNKHRSRRKWCFWNSSPAVA”, the “soluble on expression in E. coli” value was “soluble”. To “MPITRTGLPHAVASTSQTQETSQASASQGVLDPGTVPPRRAETFDGLSALPNDLRREIAQRCGPRSLVRLGSVSRQMAEDTRDVRAFLTARPRYDPSLEFGDVHSAESMRVALDEVTHFPYPDDEDRSEQILRGYGRLAARIPSLPQAQRFEAFTAVLNHATRHSGNMAFRVVARLTDDLGCLPEDLRALAFHAILPSLIATRRQALQAAAGAAHVGHIGAVAEADAGGVQGDGEPGPQGAVAPAQGGAAGGIGGALPFNLLASAIRHLPEEAVNLAITEAAALQTGPRLLAEVTLRLHLVGLEPIHRFQQAYAQLAEHLARSGDGAEALTHLVALLNRLPNPGVRQAAFRELTRAVHALDSTESGAAVLRRLAGALPHQPAAVRYLCSLDVLAAAASLFPSEQIPVIAAVRAQAAAIPNQAAELIARCDDAIATASMMLATVSRRYMDM” belongs “not soluble”; to “SSAESVSCTVKSPVALQIGDAVSDSSRPGVYITDITLAEPVNIQEISFKNFYTAYLTVRLQRRHGSTASKWVTCLKNYCLMGNPHAEAGSHDYFSIYRQQMSTEPDNVTTVRLILRQPSSEWLSFSIEEINIYPCTKEDSERDVPAWLSTLTPVDEPLDLKGLPDPETVSSSIQQMWALTEIMQASQTAASIGRFDVEGAYDVKLLSYT”, “not soluble”. For “MGSDKIHHHHHHMTNLGTAKNFWDATLYQDKHSFVWQYGEDLLQLLNPQPGEFILDLGCGTGQLTEKIAQSGAEVLGTDNAATMIEKARQNYPHLHFDVADARNFRVDKPLDAVFSNAMLHWVKEPEAAIASIHQALKSGGRFVAEFGGKGNIKYILEALYNALETLGIHNPQALNPWYFPSIGEYVNILEKQGFDVTYAALFNRPTTLAEGEFGMANWIQMFASAFLVGLTPDQQVQLIRKVEATLQDKLYHQESWTADYRRIRIVSIKAQ” the value was “not soluble”; for “MGSDKIHHHHHHMYHDVSYLLSRLINGPLSLRQIYFASSNGPVPDLAYQVDFPRLEIVLEGEFVDTGAGATLVPGDVLYVPAGGWNFPQWQAPATTFSVLFGKQQLGFSVVQWDGKQYQNLAKQHVARRGPRIGSFLLQTLNEMQMQPQEQQTARLIVASLLSHCRDLLGSQIQTASRSQALFEAIRDYIDERYASALTRESVAQAFYISPNYLSHLFQKTGAIGFNEYLNHTRLEHAKTLLKGYDLKVKEVAHACGFVDSNYFCRLFRKNTERSPSEYRRQYHSQLTEKPTTPE”, “not soluble”. For “MPKHCSHLIIIPDGKMAAIPFEALIEKRPKHDTSSYAQMGFMIKKYATSYTYTASLYENTHEAAKVKKVLLFAPVDFSASSDLNALPGTLAEVDTLTSLCTNTAQADVYTYTAASKAVLVSDSLSGYSIIHLATHGLVDEEQPELSCIYTSGTSEENDRIYAGDMYNMHLNAALVSLSACQTGLGKIEKGEGMIGLSRALFYAGADNIMVSLWKVSDLSTQVYMQYFYSIYLSENFTTFAEAARISKIKLLNSETFNSPYYWAAFILIGKLEHHHHHH” the value was “not soluble”; for “MNQAIGGSFDDVIGNHQADTAMIVQISADRKEINLVSIPRDSLVDVPQCETSKGTIPAQYNVMFNSIFAGAYKTGGDLSSAASCTLNAVNSLTGLNIQNFIVVDFAGLVKMIDSVGGVDLCIPQNVNDPYTGLNLDKGMHHLDGVAATQYARIRHGIGDGSDTSRTTRQQYLIKQLMSEALSKNLFTDTAQLYQLAKSALKSLNISQGMADTAALAGLAMSLKNFTMTNLQTQTVPVVPAPSDPNRSVWTDEADNLWEKMRAGKPIFDTADSNSGGSSDTSSDNSASSDDSGTTDSNQSDTTAETPDPVTGLITKSDGTLVDPSTGGTVDPDDGSIHDATTGQYIGLADRYLNATVCAVPAKNLEHHHHHH”, “soluble”. Consider “MKVDLFDFHLPEELIAQTPLPDRAASRLMVLDKRTGAIRHETFRNIISYLNPGDCLVLNDTRVMPARLYGEKEETGGTVEVLLLKQLDGDRWETLVKPGKRVKPGTKLTFGEGKLEAVCLDTLEHGGRVLEFSYDGLFYEVLAELGEMPLPPYIKEKLDDPERYQTVYAREIGSAAAPTAGLHFTEELLDAIREKGVHIVFITLHVGLGTFRPVQVDDVEKHDMHAEFYQMSEETAETLNRVREQGGRIIAVGTTSTRTLETIAGKHNGRFVAESGWTDIFIYPGYEFKGIDGLVTNFHLPKSTLIMLVSALAGRENILHAYQVAVKERYRFFSFGDAMLII”, for which the “soluble on expression in E. coli” value is “soluble”. For “MIYRKATEKDIAQLVELRKKQLEDEGIAPINNIDTELTHFFELSFKKNSFISWISEEDNEIIATSGVCFYKYPPSYLNPSGKVAYITNMYTKYEYRSRGIALALLKLVILEAKKRDYLFLRLHASDMGRPIYEEIGFKPFDDFMEMNLSLNRNGELEHHHHHH” the value was “soluble”. To “MASVPTHQSEKEKKNDELSTAILKDKVKPNRLIVDQSEQDDNSVIAVSQAKMDELGLFRGDAVILKGKKRKESVAIIVSDESCPNEKVRMNRVVRNNLRIRLGDVVSITPAPNLSYGTRIHVLPIDDTIEGLTGNLFDVFLKPYFLEAYRPLHKGDIFTVQAAMRTVEFKVVETEPAPACIVSPDTMIHYEGDPIKREEEEESMNDIGYDDLGGVRKQLAQIKEMVELPLRHPQLFKAIGIKPPRGILLFGPPGTGKTLIARAVANETGSFFFLINGPEVMSKMSGESESNLRKAFEECEKNQPAILFIDEIDAIAPKREKTNGEVERRIVSQLLTLMDGVKGRSNLVVIAATNRPNSIDGALRRFGRFDREIDIGIPDAVGRLEILRIHTKNMKLADDVDLEQIANECHGFVGADLASLCSEAALQQIREKMELIDLEDDQIDAEVLNSLAVTMENFRFAQGKSSPSALREAVVETPNTTWSDIGGLQNVKRELQELVQYPVEHPEKYLKFGMQPSRGVLFYGPPGCGKTLLAKAIANECQANFISIKGPELLTMWFGESEANVRDVFDKARAAAPCVLFFDELDSIAKARGGGAGGDGGGASDRVINQVLTEMDGMNAKKNVFIIGATNRPDIIDPAVLRPGRLDQLIYIPLPDEASRHQILKASLRKTPLSKDLDLTFLAKNTVGFSGADLTEICQRACKLAIRESIEKEIRIEKERQDRQARGEELMEDDAVDPVPEITRAHFEEAMKFARRSVTDNDIRKYEMFAQTLQQSRGFGNNFKFPGEQRGSDAPSAPVPAQDDDDLYN” belongs “soluble”. For “TQLQLKDSMEKFGALYHSSSLGMLIVIEREIVDANHRALELLSYKKSDLLEQSLDTLCPTTADECRVDAMYRELQHGRNQFEAQMLDSHGETIDCLIEATLIQHNGHTALMLLLQDLS” the value was “not soluble”; for “MCLAIPSKVIAIKDNVVLLETLGVQREASLDLMGESVKVGDYVLLHIGYVMSKIDEKEALESIELYQEMIARMNETQ”, “not soluble”; for “MTKAVVIGGGLAGLATTALLLREGYEVHLVEQNEHLGGRAGTFELDGFRWDTGPSWYLMPDAMSHFFKLCGTSIDDHLDLVPLEPAYRVIDDHGEFIDVTSDIDAMAELFESREPGAGAKLRTYIDSATQVYNLAIDGFLYTNFTNFIPYLSPGMLRLLPKLLASLSTSLKVKVNTQFRDTKLRQILSYPAVFLSSDPSHTPALYHLMSHTDLVQGVSYPRGGFTAFIKALISLIDDAVLHLGTPVSAITTQGRNATGVQVGSEFIEADIVISCADQHHTETQLLPASLCAKPETSWKNKQPGLSTVLVLAGVKGEHTLLFPPTGTKISAKFSTAPPQNSRLQNPSRSPRPPQQIPMPHPKATRTSSSWSQYPPMSPLVTGPLTEKNLTWWAGSQLEHHHHHH”, “not soluble”. For “MGSDKIHHHHHHMEYEIVIGLEVHAELATKTKMYCGCTAEFGGQPNTHVCPVCMGLPGALPHINKRAVDYGIKAGLALNCSITHIGRMDRKHIFYPDNSRNYQITQDELPLCTNGYIEIELEDGSKKKIGVERIHIEEDAGKLLHTNAGTLVDFNRCGVPLAEIVSKPDMRSPREAVTYLEELKSILSCVGVSDCKMEEGSLRCDANISVMKKGAKEFGVRTEIKNMNSFKAVEKALNYEYERHIKAIESGEKLTQETRRWDDAKNETAPMRSKEEANDYRYFPEGDLVTLNIDDEWIESIRKTIPELPYQKRERFIKEFGIPKYDASVLTLTMSMADFFEKTAKISGDAKSASNWLMGDISKIMKENYVWIEDLKFTPEQLSELIKLINEGTVSNAIGKKVIIKMFETGKSPKNIIEEEGLIQNSNEDEILNIVKEVLSENEKSIEDYKNGKNRVVGFLIGLVMKKTKGKANPKIVNKLMIDELNKQ”, the “soluble on expression in E. coli” value is reported as “not soluble”. To “MAHHHHHHMDEYDYNYATYDIDNFTNNFEDNLINYNQIDFINDNAEINNYSNEYYAYDEDLVEENVSEKRIHNKVLLSNDNEFDNNLINISNEIKTENSNNDTSLLKKRKIINDILLNIKKKMKKNDTLCIICLQNEKKYTFTCCYEYYCSLECFKKHDQQKCRNQNKNEPKISGSHNINMDDIKNSNHQKYEDTYYYQNEEDINKKQNDKVIENTIKLDNENKKNEINNINDMDTTCSNFPNNNLSTSLLNNDNNIPNNNENSESSDDYTDDYDMLTEEQKKKLKEDHTLKILLKNNYVREVFKQFTLSNDKIGYLSHYINDPTIVQVIDHIMKTIDDT” belongs “not soluble”.
